Consider one protein from publication PMC8771830, “Multimerization of the GATA4 transcription factor regulates transcriptional activity and cardiomyocyte hypertrophic response” (International Journal of Biological Sciences, 2022).

This series concerns the molecule itself. The experiment in a line: SEC; purified GATA4 on Superdex200 Increase 10/300 GL in 20 mM HEPES-NaOH pH 7.4, 100 mM NaCl; fractions blotted with anti-GATA4. A general note: In gel filtration, larger molecules generally elute earlier.

B1: Full length GATA4 produced by E. coli (natural protein)
chain: not shown
notes: GATA4, full length; also called purified GATA4; recombinant GATA4; source: E. coli BL21 DE3, purified (Glutathione-Sepharose 4B, GST removed with HRV3C protease)
As a reminder, the stoichiometry N is the number of molecules, sites or subunits per partner or assembly. B1: the “stoichiometry N” value is approximately 8.
